Target: ActHIB, Haemophilus influenzae type b capsular polysaccharide (PRP) tetanus toxoid conjugate, withou (UniProt P04958 2-1315)
Experiment: competitive ELISA, soluble murine Fc-dectin-1a on coated glucan

B1: soluble murine Fc-dectin-1a receptor (InvivoGen) (Fc fusion)
chain: EYGHNSGRNPEEKDNFLSRNKENHKPTESSLDEKVAPSKASQTTGGFSQPCLPNWIMHGKSCYLFSFSGNSWYGSKRHCSQLGAHLLKIDNSKEFEFIESQTSSHRINAFWIGLSRNQSEGPWFWEDGSAFFPNSFQVRNTAPQESLLHNCVWIHGSEVYNQICNTSSYSICEKEL
B1: no binding.
